Paper PMC11311238

Target: phycobilisome core (CK) of allophycocyanin cylinders from a Synechocystis PCC 6803 mutant lacking the rods (Synechocystis sp. PCC 6803 (endogenous in the rod-less mutant)) (UniProt Q01951)

fraction of the decay of excited CK bilins that is quenched (112 ps component) in CK-NTD, transient absorption with excitation at 694 nm: 76%
B1: N-terminal domain (NTD) of the orange carotenoid protein (OCP) binding canthaxanthin (holo-NTD) (domain or fragment)
chain: VPATIARFSQLNAEDQLALIWFAYLEMGKTLTIAAPGAASMQLAENALKEIQAMGPLQQTQAMCDLANRADTPLCRTYASWSPNIKLGFWYRLGELMEQGFVAPIPAGYQLSANANAVLATIQGLESGQQITVLRNAVVDMGFTA
